Data set [1] has as its system 1,557 peptides that contain no tyrosine residues (3,243-plex peptide construct set).
The subject of data set [2] is T1, peptide construct comprising the Abl substrate GEAIYAAPFA (SEQ ID NO:13) with C-terminal FLAG tag.
T1 sequence: GEAIYAAPFADYKDDDDK

Data set [3] deals with T2, peptide construct comprising the enterokinase substrate AGDDDDKAG (SEQ ID NO:2).
T2 sequence: CAAGDDDDKAG

Data set [4] deals with T3, peptide construct comprising the thrombin substrate GLVPRGSAG (SEQ ID NO:1).
T3 sequence: CAGLVPRGSAG

The subject of data set [5] is peptides containing thrombin cleavage sites (whole yeast peptide construct set from S. cerevisiae genomic DNA).
Data set [6] relates to T4, peptide construct with Cortactin 10-mer GHYPAEDSTY (SEQ ID NO:17).
T4 sequence: GHYPAEDSTY

Data set [7] deals with T5, peptide construct with Cortactin 10-mer GLAYATEAVY (SEQ ID NO:16).
T5 sequence: GLAYATEAVY

Data set [8] relates to T6, peptide construct with Cortactin 10-mer GTEPEPVYSM (SEQ ID NO:18).
T6 sequence: GTEPEPVYSM

Data set [9] deals with T7, peptide construct with Cortactin 10-mer QVSSAYQKTV (SEQ ID NO:20).
T7 sequence: QVSSAYQKTV

The subject of data set [10] is T8, peptide construct with Cortactin 10-mer VYSMEAADYR (SEQ ID NO:19).
T8 sequence: VYSMEAADYR

Data set [11] relates to peptide construct with HCV polyprotein 8-mer EAIYQCCD (SEQ ID NO:12).
For data set [12], the system named is peptide construct with HCV polyprotein 8-mer EVVTSTWV (SEQ ID NO:11).
Data set [13] deals with peptide construct with HCV polyprotein 8-mer MEECSQHL (SEQ ID NO:8).
For data set [14], the system named is peptide construct with HCV polyprotein 8-mer TTPCSGSW (SEQ ID NO:9).
In data set [15] the test system is peptide construct with HCV polyprotein 8-mer VVCCSMSY (SEQ ID NO:10).

Here are results for five substances from patent US20140051589.

Consider ABL1 tyrosine kinase, for which the “phosphorylation, capture on anti-phosphotyrosine beads and sequencing counts” value in [1] is listed as “None of the 1557 negative peptides were detected in the assays”. Moreover, in data set [2], the “relative qPCR signal {2^[Ct(untreated)-Ct(test)]} after biotin labelling of phosphotyrosine and capture on streptavidin beads” value is on record as “The qPCR signal was ~2-fold higher for the kinase-treated preparation, relative to the untreated preparation”; the “relative qPCR signal {2^[Ct(untreated)-Ct(test)]} after capture on anti-phosphotyrosine antibody beads” value is reported as “The qPCR signal was significantly higher (~120-fold) for the kinase-treated preparation, relative to the untreated preparation”.

Consider enterokinase, for which the “protease cleavage, PAGE of reaction products” value in [3] is given as “When treated with enterokinase, the peptide construct comprising the enterokinase substrate was cleaved”; in data set [4], “neither the control nor the peptide construct comprising the thrombin substrate were cleaved”.

With thrombin, the “protease cleavage, PAGE of reaction products” value is “neither the control nor the peptide construct comprising the enterokinase substrate was cleaved” in data set [3] and “then treated with thrombin, the peptide construct comprising the thrombin substrate was cleaved” in data set [4]. Besides, the “protease cleavage, sequence analysis of released constructs” value in [5] is “Sequence analysis demonstrated a significant enrichment of peptides containing thrombin cleavage sites”.

Consider SRC tyrosine kinase, for which the “phosphorylation, capture on anti-phosphotyrosine beads and sequencing counts” value in data set [1] is “None of the 1557 negative peptides were detected in the assays”; in [6] it was “Two of the three Src phosphorylation sites (GLAYATEAVY (SEQ ID NO: 16) and GHYPAEDSTY (SEQ ID NO: 17)) were detected”; in data set [7], “Two of the three Src phosphorylation sites (GLAYATEAVY (SEQ ID NO: 16) and GHYPAEDSTY (SEQ ID NO: 17)) were detected”; in data set [8], “Two more sites were identified (GTEPEPVYSM (SEQ ID NO: 18) and VYSMEAADYR (SEQ ID NO: 19))”; in [9], “the third known site that was not detected (QVSSAYQKTV (SEQ ID NO: 20))”; in data set [10], “Two more sites were identified (GTEPEPVYSM (SEQ ID NO: 18) and VYSMEAADYR (SEQ ID NO: 19))”.

Take “NS3 (hepacivirin) protease of hepatitis C virus”: the “protease cleavage, release from beads and sequencing counts” value (from here on “protease cleavage, release”) in the data set on SEQ ID NO 22 was “map of peptide cleavage sites identified by assaying overlapping 8-mer peptides of HCV polyprotein (SEQ ID NOS:22, 23, 24, 25, 8, 26, 9, 27, 10, 28, 12, and 29”; with SEQ ID NO 23, “map of peptide cleavage sites identified by assaying overlapping 8-mer peptides of HCV polyprotein (SEQ ID NOS:22, 23, 24, 25, 8, 26, 9, 27, 10, 28, 12, and 29”; with SEQ ID NO 24, “map of peptide cleavage sites identified by assaying overlapping 8-mer peptides of HCV polyprotein (SEQ ID NOS:22, 23, 24, 25, 8, 26, 9, 27, 10, 28, 12, and 29”; in the data set on SEQ ID NO 25 it was “map of peptide cleavage sites identified by assaying overlapping 8-mer peptides of HCV polyprotein (SEQ ID NOS:22, 23, 24, 25, 8, 26, 9, 27, 10, 28, 12, and 29”; in the data set on SEQ ID NO 26, “map of peptide cleavage sites identified by assaying overlapping 8-mer peptides of HCV polyprotein (SEQ ID NOS:22, 23, 24, 25, 8, 26, 9, 27, 10, 28, 12, and 29”; with SEQ ID NO 27 it was “map of peptide cleavage sites identified by assaying overlapping 8-mer peptides of HCV polyprotein (SEQ ID NOS:22, 23, 24, 25, 8, 26, 9, 27, 10, 28, 12, and 29”. The “protease cleavage, release” value in the data set on SEQ ID NO 28 is “map of peptide cleavage sites identified by assaying overlapping 8-mer peptides of HCV polyprotein (SEQ ID NOS:22, 23, 24, 25, 8, 26, 9, 27, 10, 28, 12, and 29”; with SEQ ID NO 29, “map of peptide cleavage sites identified by assaying overlapping 8-mer peptides of HCV polyprotein (SEQ ID NOS:22, 23, 24, 25, 8, 26, 9, 27, 10, 28, 12, and 29”; in [11], “Peptide EAIYQCCD (SEQ ID NO:12) represents a peptide substrate that does not fit the known HCV NS3 protease consensus”; in data set [12] it was “the undetected site, EVVTSTWV (SEQ ID NO:11), is known to be cleaved only in cis”; in data set [13] it was “cleavage of 3 of the 4 known sites published in the MEROPS database was detected”; in [14] it was “cleavage of 3 of the 4 known sites published in the MEROPS database was detected”. Also, in data set [15], the “protease cleavage, release” value was “cleavage of 3 of the 4 known sites published in the MEROPS database was detected”.
